The results in this text go back to article PMC4568413, “Functional analysis of the sporulation-specific diadenylate cyclase CdaS in Bacillus thuringiensis” (Frontiers in Microbiology, 2015).

The data set concerns the molecule itself. The data set is described as follows: SEC; Superdex 200HR 10/30; about 10 mg/mL CdaS loaded (1 mL); 25 mM Tris-HCl pH 8.0, 150 mM NaCl; 0.5 mL/min; calibrated with Bio-Rad protein standards.

B1: CdaS protein from Bacillus thuringiensis BMB171 (enzyme, UniProt D5TM67 1-201, looked up)
chain: MHEWGLSEELKIQTKQMIEIAEKELSIMRNAIDKEDECILCKMEDIHHMLANVQTLAATYYIQAYLSPYTESSSFITTAIQHLSARKHGALIVVERNETLEALIQTGTTLNAHLTAPLLESIFYPGNPLHDGAVLVKNNHIVSAANILPLTKSTEVDPELGTRHRAAIGLSEKSDALILVVSEETGRTSFALNGILYTISL
notes: CdaS (cyclic di-AMP synthase, sporulation-specific; N-terminal YojJ domain and C-terminal DAC domain) of Bacillus thuringiensis BMB171; full length, the truncated constructs end at residue 201; cdaS gene 606 bp; theoretical monomer mass 23.3 kDa; Cloned in NcoI and XhoI sites of pET28b; also called B. thuringiensis CdaS; wild type CdaS; source: E. coli BL21(DE3) harboring pET28b-cdaS, purified …
For the protein B1, the “stoichiometry N” value came out at 6.

Broadly, the stoichiometry N is a count of units in the complex or per binding partner.
